Assay results as given in US20250051455A1 (Hoffmann-La Roche, published 2025).

Tests used:
[1] = target: T1, modified human HLA-G β2M MHC class I complex (HLA-G specific amino acids replaced by HLA-A consensus amino … (human)); assay: ELISA, biotinylated degrafted HLA-G on streptavidin plate (no EC50; Max. OD 0.13)
T1 construct: Counter antigen: single-chain fusion of peptide, beta-2 microglobulin and HLA-G in which 14 HLA-G unique surface positions were mutated to an HLA-A consensus; also called degrafted HLA-G; HLA-G-0007
Description: Streptavidin coated plates (Nunc, MicroCoat #11974998001) were coated with 25 μl/well biotinylated human degrafted HLA-G at a concentration of 250 ng/ml and incubated at 4° C. overnight. After washing (3×90 μl/well with PBST-buffer) 25 μl anti-HLA-G samples (1:3 dilution in OSEP buffer) or rat serum (1:600 dilution in OSEP) were added and incubated 1 h at RT. After washing (3×90 μl/well with PBST-buffer) 25 μl/well of a mixture of goat-anti-rat IgG1-POD (Bethyl #A110-106P), goat-anti-rat IgG2a-POD (Bethyl #A110-109P) and goat-anti-rat IgG2b-POD (Bethyl #A110-111P) 1:10000 in OSEP was added and incubated at RT for 1 h on shaker. After washing (6×90 μl/well with PBST-buffer) 25 μl/well TMB substrate (Roche, 11835033001) was added and incubated until OD 2-3. Measurement took place on a Tecan Safire 2 instrument at 370/492 nm.

[2] = target: T2, recombinant soluble human HLA-G β2M MHC class I complex, monomer (human); assay: competition ELISA, one antibody concentration; competitor coated ILT2-Fc
T2 construct: His tagged; biotinylated where coated on streptavidin plates, non-biotinylated in SPR; also called HLA-G-0003; wt HLA-G (monomer)
Description: (§1) The ELISA was set up by coating the Fc tagged ILT2 and ILT4 respectively to Maxisorp microtiter plates. After incubation and washing steps, the respective antibodies were added at a concentration of 100 nM. Soluble His tagged monomeric, dimeric or trimeric HLA-G was added to the wells. After incubation and washing steps, detection of bound receptor was carried out by anti-His-antibody-POD conjugates.
(§2) The above tables summarize the blocking of interaction between rec. HLA-G proteins (monomer and oligomers) to its receptors ILT2 and ILT4 by the described HLAG antibodies at a concentration of 110 nM (*HLAG-0090 was tested at a concentration of 44 nM) as assessed by ELISA. Shown are the % inhibitions of the HLA-G/receptor interaction (for ILT2 and ILT4). The less pronounced ILT4 inhibition depends on the major β2M dependent interaction of this receptor.

[3] = target: T3, recombinant soluble human HLA-G β2M MHC class I complex, dimer (human); assay: as above
T3 construct: Non-biotinylated; also called HLA-G Dimer; dimeric HLA-G
Description: as §1, §2

[4] = target: T4, recombinant soluble human HLA-G β2M MHC class I complex, trimer (human); assay: as above
T4 construct: Non-biotinylated; also called HLA-G Trimer; trimeric HLA-G
Description: as §1, §2

[5] = target: T2, recombinant soluble human HLA-G β2M MHC …; assay: SPR Biacore T200, antibody captured via anti-Fc, HLA-G monomer as analyte, 25 C
Description: Binding kinetics of anti-HLA-G antibodies to human HLA-G, human HLA-G degrafted and human HLA-A2 were investigated by surface plasmon resonance using a BIACORE T200 instrument (GE Healthcare). All experiments were performed at 25° C. using PBS Buffer (pH 7.4+0.05% Tween20) as running buffer and PBS Buffer (+0.1% BSA) as dilution buffer. Anti-human Fc (JIR009-005-098, Jackson) or anti-rat Fc (JIR112-005-071, Jackson) or anti-Mouse Fc (JIR115-005-071, Jackson) antibodies were immobilized on a Series S CM5 Sensor Chip (GE Healthcare) at pH 5.0 by using an amine coupling kit supplied by GE Healthcare. Anti-HLA-G antibodies were captured on the surface leading to a capturing response of 50-200 RU. HLA-G molecules were injected for 180 s at 30 μl/min with concentrations from 2.5 up to 800 nM (2×1:2 and 4×1:3 dilution series) onto the surface (association phase). The dissociation phase was monitored for 300-600 sec by washing with running buffer. The surface was regenerated by injecting H3PO4 (0,85%) for 60+30 seconds for anti-human Fc capturing antibodies, glycine pH1,5 for 60 seconds and glycine pH2,0 for 60 seconds for anti-rat Fc capturing antibodies, H3PO4 (0,85%) for 80+60 seconds for anti-mouse Fc capturing antibodies. Bulk refractive index differences were corrected by subtracting the response obtained from a mock surface. Blank injections were subtracted (double referencing). The derived curves were fitted to a 1:1 Langmuir binding model using the BIAevaluation software.
The above table summarizes the antibody affinities and t½ values against wt and degrafted HLA-G as assessed by Surface plasmon resonance (Biacore) analysis. Binding kinetics of anti-HLA-G antibodies to human HLA-G and human HLA-G degrafted were investigated by surface plasmon resonance using a BIACORE T200 instrument (GE Healthcare). All experiments were performed at 25° C. using PBS Buffer (pH 7.4+0.05% Tween20) as running buffer and PBS Buffer (+0.1% BSA) as dilution buffer. Anti-human Fc (JIR009-005-098, Jackson) or anti-rat Fc (JIR112-005-071, Jackson) or anti-Mouse Fc (JIR115-005-071, Jackson) antibodies were immobilized on a Series S CM5 Sensor Chip (GE Healthcare) at pH 5.0 by using an amine coupling kit supplied by GE Healthcare.

[6] = target: T2, recombinant soluble human HLA-G β2M MHC …; assay: competition ELISA, antibody 44 nM; competitor coated ILT4-Fc
Description: as §1, §2

[7] = target: T4, recombinant soluble human HLA-G β2M MHC …; assay: as above
Description: as §1, §2

[8] = target: T2, recombinant soluble human HLA-G β2M MHC …; assay: competition ELISA, antibody 44 nM; competitor coated ILT2-Fc
Description: as §1, §2

[9] = target: T3, recombinant soluble human HLA-G β2M MHC …; assay: as above
Description: as §1, §2

[10] = target: T4, recombinant soluble human HLA-G β2M MHC …; assay: as above
Description: as §1, §2

B1: HLA-G-0039 (antibody, V domains shown)
VH: EVQLLESGGGLVQPGGSLRLSCAASGFTFSSYAMNWVRQAPGKGLEWVSVISGSGVSTYYADSVKGRFTISRDNSRNTLSLQMNSLRAEDTAVYYCAKDGSYNYGYGDYFDYWGQGTLVTVSS
VL: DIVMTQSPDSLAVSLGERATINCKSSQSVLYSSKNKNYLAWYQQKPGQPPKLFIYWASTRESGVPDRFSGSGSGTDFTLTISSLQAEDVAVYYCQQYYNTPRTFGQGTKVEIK
notes: Human antibody from humanized OmniRat (OMT) rats
In the case of B1, the binding result [1] is reported as “no binding”, the “% inhibition of ILT2 binding” value [2] is reported as -450% and the “% inhibition of ILT2 binding” value [3] is reported as 25%. The “% inhibition of ILT2 binding” value [4] was 70%, the Kd [5] was 0.95 nM and the koff [5] was 0.00044 s⁻¹. The kon [5] was 460000 M⁻¹ s⁻¹ and the “t 1/2” value [5] was 27 min.

B2: HLA-G-0041 (antibody, V domains shown)
VH: EVQLLESGGGLVQPGGSLRLSCAASGFTFSTYGMSWVRQAPGKGLEWVSVISGGGVSTYYADSVKGRFTISRDNSKNTLYLQMNRLRAEDTAVYYCAKDGSYNYGYGDYFDYWGQGTLVTVSS
VL: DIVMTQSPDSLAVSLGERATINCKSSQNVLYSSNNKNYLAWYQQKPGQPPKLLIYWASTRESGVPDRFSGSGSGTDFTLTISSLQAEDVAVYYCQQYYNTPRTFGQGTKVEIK
notes: as for B1
With B2 the “% inhibition of ILT2 binding” value [2] was -437%, the “% inhibition of ILT2 binding” value [3] was 23% and the “% inhibition of ILT2 binding” value [4] was 67%. The Kd [5] was 1.3 nM, the koff [5] was 0.00049 s⁻¹ and the kon [5] was 380000 M⁻¹ s⁻¹. For the same binder, the “t 1/2” value [5] was 23 min.

B3: HLA-G-0031 (antibody, V domains shown)
VH: QVKLMQSGAALVKPGTSVKMSCNASGYTFTDYWVSWVKQSHGKRLEWVGEISPNSGASNFDENFKDKATLTVDKSTSTAYMELSRLTSEDSAIYYCTRSSHGSFRWFAYWGQGTLVTVSS
VL: AIVLNQSPSSIVASQGEKVTITCRASSSVSSNHLHWYQQKPGAFPKFVIYSTSQRASGIPSRFSGSGSGTSYSFTISRVEAEDVATYYCQQGSSNPYTFGAGTKLELK
notes: Rat monoclonal antibody obtained from CD rats
B3 was tested, and the binding result [1] was “no binding”, the “% inhibition of ILT2 binding” value [2] was 101% and the “% inhibition of ILT2 binding” value [3] was 99%. The “% inhibition of ILT2 binding” value [4] was 100%, the Kd [5] was 75 nM and the koff [5] was 0.0037 s⁻¹. For the same binder, the kon [5] was 49000 M⁻¹ s⁻¹ and the “t 1/2” value [5] was 3 min.

B4: HLA-G-0090 (antibody, V domains shown)
VH: QVQLQQSGPGLLKPSQTLSLTCAISGDSVSSNRAAWNWIRQSPSRGLEWLGRTYYRSKWYNDYAVSVQGRITLIPDTSKNQFSLRLNSVTPEDTAVYYCASVRAVAPFDYWGQGVLVTVSS
VL: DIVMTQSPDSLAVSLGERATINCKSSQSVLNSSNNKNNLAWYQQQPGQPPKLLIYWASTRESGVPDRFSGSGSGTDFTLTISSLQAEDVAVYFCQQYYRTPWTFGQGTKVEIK
notes: as for B1
In the case of B4, the “% inhibition of ILT4 binding” value [6] is reported as 31%, the “% inhibition of ILT4 binding” value [7] is reported as 47% and the Kd [5] is reported as 3.6 nM. For the same binder, the koff [5] was 0.00085 s⁻¹, the kon [5] was 230000 M⁻¹ s⁻¹ and the “t 1/2” value [5] was 14 min. The “% inhibition of ILT2 binding” value [8] was 92%, the “% inhibition of ILT2 binding” value [9] was 100% and the “% inhibition of ILT2 binding” value [10] was 99%.
